US9044392B2, “Nylon-3 co-polymers and synthetic lung surfactant compositions containing same” (Wisconsin Alumni Research Foundation, priority 2010, dated 2015)
Like-named read-outs stand apart in the source and are kept apart here.

Columns and labels:
[1] = Pulsating bubble surfactometry (PBS), dynamic-bubble mode, 20 cpm; assay type: physicochemical
Method: (§1) Surfactant Sample Preparation: The lipids DPPC, POPG, and PA were individually dissolved in a chloroform/methanol solution (3/1 [v/v]) to a known concentration (˜2 or 4 mg mL^−1). Single-lipid solutions were then combined by volume at the ratio of DPPC:POPG:PA, 68:22:9 [wt:wt:wt] and to a known total lipid concentration (˜2 mg mL^−1). This well-characterized and well-known lipid formulation is considered an adequate mimic of the non-protein (lipid) fraction of LS.^45 The peptides, peptoid, and copolymers were individually dissolved in methanol from a lyophilized powder to a known concentration (1-2 mg mL^−1). For the PBS studies, the peptides, peptoids, and polymers were ‘spiked’ into the lipid mixture at 10 wt % relative to the total lipid content (9.1 absolute wt %), and to a final concentration of ˜1 mg lipid mL^−1. For comparative purposes, the inclusion of peptide/peptoid/copolymer at 10 wt % corresponds to 10 wt % SP-B1-25 (9.1 absolute wt %) relative to the total lipid content. The total combined protein fraction in natural LS is estimated to be ˜10 wt %.^18 For PBS experiments, all σ reported is the standard deviation of the mean.
(§2) Pulsating Bubble Surfactometry: A commercial PBS instrument (General Transco, Largo, Fla.), modified with a direct, real-time imaging system, which has been previously described and validated in detail,^44 was utilized to obtain both static-mode and dynamic-mode data. Samples were dried from chloroform/methanol 3/1 [v/v] in Eppendorf tubes using a DNA 120 speedvac (Thermo Electron, Holbrook, N.Y.), forming a pellet. The pellet was suspended in buffer (150 mM NaCl, 10 mM HEPES, 5 mM CaCl2, pH 6.9) to 1.0 mg lipid mL^−1, with a final known volume of ˜70 μL. The samples were then mixed with a pipette 20 times, sonicated with a Fisher Model 60 probe sonicator for two 15 second spurts, and then mixed again 20 times to form a dispersed suspension. Samples were then loaded into a small plastic sample chamber (General Transco) using a modified leak-free methodology.^43,44 The sample chamber was then placed in the instrument, surrounded by a water bath held at 37° C. A bubble with a radius of 0.4 mm was then formed, and surface area was monitored throughout the experiment.
(§3) Static-mode adsorption data were collected for 20 minutes, where the suspension was allowed to adsorb to the bubble surface over time. […] Dynamic-mode data were then subsequently obtained for each sample at the adult respiratory cycle frequency of 20 cpm for 10 minutes, with a 50% reduction in surface area per pulsation cycle. PBS experiments were repeated three to six times for each sample to ensure repeatability. Representative PBS loops are presented at five minutes of cycling, and indicate clockwise bubble expansion and counterclockwise compression (see FIGS. 6A, 6B, 6C, and 6D). Average γ±σ at selected time intervals are listed in the Examples for both data collection modes. Percent compression is defined here as 100*[(SAmax−SA20)/(SAmax)], where SAmax was the maximum SA value at expansion, and SA20 was the SA at which γ first reaches 20 mN m^−1 upon compression (FIG. 5).
Pulsating Bubble Surfactometry: Dynamic-Bubble Mode. The dynamic surfactant activity during changes in volume or film surface area provides an indication of film sustainability over time. Bubble pulsation at the approximate adult respiratory rate of 20 cycles per minute (cpm) in PBS dynamic-bubble mode at 37° C. permits a simplified evaluation of such dynamic film behavior.^44 In dynamic mode, after static-bubble adsorption, the bubble was subsequently pulsed for 10 minutes and y was recorded with respect to surface area. FIGS. 4A, 4B, 4C, and 4D depict the attained maximum and minimum γ (γmax/min) at 5 minutes of cycling for all lipid films containing polymers or positive controls. Mean γmax/min's±σ at selected time intervals for up to 10 minutes of cycling are located in Tables 4 and 5. […]

[2] = Pulsating bubble surfactometry (PBS), static-bubble mode adsorption; assay type: physicochemical; conditions: 37° C., mimic 10 wt % in TL, originally synthesized polymers
Method: as §1, §2, §3
Pulsating Bubble Surfactometry: Static-Bubble Mode. The immediate adsorptive, γ-reducing effect, and stability of the films over time at a bubble […] interface were assessed via PBS in static-bubble mode. […]

[3] = dynamic-bubble mode, cited from earlier work
[4] = at 5 minutes, static-bubble mode, TL film; cited from earlier work
[5] = 5 minutes of dynamic-bubble cycling, 20 cpm, 37° C. (FIGS. 4A-4D)
[6] = dynamic-bubble pulsation, 1 min, 37° C., mimic 10 wt % in TL, originally synthesized polymers
[7] = dynamic-bubble pulsation, 2.5 min, 37° C., mimic 10 wt % in TL, originally synthesized polymers
[8] = dynamic-bubble pulsation, 10 min, 37° C., mimic 10 wt % in TL, originally synthesized polymers

Molecule | γmax [1, 5] | γmin [1, 5] | Avg % Comp: percent bubble surface area compression required to reach 20 mN m-1 upon compression ([1]; at 5 minutes of dynamic-bubble pulsation on the PBS, 37° C.) | γ max Avg, 1 min [1, 6] | γ min Avg, 1 min [1, 6] | γ max Avg, 2.5 min [1, 7] | γ min Avg, 2.5 min [1, 7] | γ max Avg, 10 min [1, 8] | γ min Avg, 10 min [1, 8] | γ 1 min Avg (mean surface tension) ([2]; 1 min) | γ 2.5 min Avg (mean surface tension) ([2]; 2.5 min) | γ 5 min Avg (mean surface tension) ([2]; 5 min) | γ 10 min Avg (mean surface tension) ([2]; 10 min) | γeq 20 min Avg (mean surface tension) ([2]; 20 min) | γmax ([3]; PBS cycling loop) | γmin ([3]; PBS cycling loop) | percent compression to reach 20 mN m^−1 [3] | adsorbed γ [4]
SP-B1-25: modified peptide SP-B1-25 (Cys8,11→Ala), surface-active peptide fragment of SP-B, positive control (FPIPLPYAWLARALIKRIQAMIPKG; Pulmonary surfactant-associated protein B in Tanaka lipid film; UniProt P07988 201-225, looked up, variant C8A C11A) | ~50 mN m^−1 | near zero | 33.2% | 49.6 mN m−1 | <1 mN m−1 | 49.9 mN m−1 | <1 mN m−1 | 49.8 mN m−1 | <1 mN m−1 | 40.5 mN m−1 | 39.4 mN m−1 | 37.9 mN m−1 | 36.8 mN m−1 | 35.6 mN m−1 |  |  |  | 
SP-B: porcine-derived lung surfactant protein B in the Tanaka lipid film (protein, UniProt P15782 1-79, looked up, Pulmonary surfactant-associated protein B in Tanaka lipid film) Pulmonary …: FPIPLPFCWLCRTLIKRIQAVVPKGVLLKAVAQVCHVVPLPVGGICQCLAERYIVICLNMLLDRTLPQLVCGLVLRCSS |  |  |  |  |  |  |  |  |  |  |  |  |  |  | ~36 mN m^−1 | near-zero | ~21% | ~26 mN m^−1
